Values quoted from earlier work, collected in PMC8472222.

Molecular target: Rad57 (Saccharomyces cerevisiae) (UniProt P25301)
Sequence of UniProt P25301 (P25301 whole entry): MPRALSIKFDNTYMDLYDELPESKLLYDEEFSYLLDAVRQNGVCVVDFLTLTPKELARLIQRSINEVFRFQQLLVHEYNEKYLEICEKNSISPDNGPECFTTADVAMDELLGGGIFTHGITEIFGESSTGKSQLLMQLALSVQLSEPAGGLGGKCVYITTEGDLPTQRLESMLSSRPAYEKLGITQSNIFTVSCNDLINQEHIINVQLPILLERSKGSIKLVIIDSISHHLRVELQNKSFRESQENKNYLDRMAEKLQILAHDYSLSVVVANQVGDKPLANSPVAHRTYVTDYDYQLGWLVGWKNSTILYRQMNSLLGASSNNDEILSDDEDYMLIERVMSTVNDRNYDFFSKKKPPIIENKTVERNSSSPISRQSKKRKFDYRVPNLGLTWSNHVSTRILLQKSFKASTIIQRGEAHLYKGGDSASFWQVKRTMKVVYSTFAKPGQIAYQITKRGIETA

Kd: < 0.2 nM
Substance: Rad55 (from UniProt P38953)
